Measured values from the Immune Epitope Database (IEDB).

What was measured:
[1] = target: HLA-A*02:01; test: IEDB peptide-MHC binding, purified MHC/direct/fluorescence; filed as Kd, often an IC50 or EC50 that approximates it; ≥ and ≤ were set here for values at or beyond the usual limits of such assays
[2] = target: HLA-A*69:01; test: as above; details: source organism: Camelpox virus M-96
[3] = target: HLA-A*24:03; test: as above
[4] = target: HLA-B*08:02; test: as above; details: source organism: Variola virus
[5] = target: HLA-B*07:02; test: as above
[6] = target: HLA-B*57:01; test: as above
[7] = target: HLA-A*26:03; test: as above
[8] = target: HLA-A*01:01; test: as above
[9] = target: HLA-B*58:01; test: as above
[10] = target: HLA-A*11:01; test: as above
[11] = target: HLA-A*31:01; test: as above
[12] = target: HLA-B*15:17; test: as above
[13] = target: HLA-A*26:01; test: as above; details: source organism: Variola virus
[14] = target: HLA-B*15:01; test: IEDB peptide-MHC binding, purified MHC/competitive/fluorescence; filed as Kd, often an IC50 or EC50 that approximates it; ≥ and ≤ were set here for values at or beyond the usual limits of such assays
[15] = target: HLA-B*08:01; test: as above; details: source organism: Vaccinia virus WR
[16] = target: HLA-A*26:02; test: as above
[17] = target: HLA-B*39:01; test: as above
[18] = target: HLA-A*68:02; test: as above
[19] = target: HLA-B*18:01; test: as above; details: source organism: Vaccinia virus WR
[20] = target: HLA-A*02:06; test: as above
[21] = target: HLA-A*02:01; test: as above
[22] = target: HLA-A*02:03; test: as above
[23] = target: HLA-A*24:02; test: IEDB peptide-MHC binding, purified MHC/direct/fluorescence; filed as Kd, often an IC50 or EC50 that approximates it; ≥ and ≤ were set here for values at or beyond the usual limits of such assays; details: source organism: Orthohantavirus hantanense
[24] = target: HLA-C*04:01; test: IEDB peptide-MHC binding, purified MHC/competitive/fluorescence; filed as Kd, often an IC50 or EC50 that approximates it; ≥ and ≤ were set here for values at or beyond the usual limits of such assays; details: source organism: Hantaan virus 76-118
[25] = target: HLA-B*45:06; test: as above
[26] = target: HLA-B*15:42; test: as above
[27] = target: HLA-A*32:07; test: as above
[28] = target: HLA-B*83:01; test: as above
[29] = target: HLA-B*48:01; test: IEDB peptide-MHC binding, purified MHC/direct/fluorescence; filed as Kd, often an IC50 or EC50 that approximates it; ≥ and ≤ were set here for values at or beyond the usual limits of such assays
[30] = target: HLA-B*15:01; test: as above; details: source organism: Brucella abortus
[31] = target: HLA-B*40:01; test: as above
[32] = target: HLA-B*27:05; test: as above
[33] = target: HLA-A*68:02; test: as above; details: source organism: Brucella abortus
[34] = target: HLA-B*46:01; test: as above
[35] = target: HLA-A*03:01; test: as above
[36] = target: HLA-B*15:17; test: IEDB peptide-MHC binding, purified MHC/competitive/fluorescence; filed as Kd, often an IC50 or EC50 that approximates it; ≥ and ≤ were set here for values at or beyond the usual limits of such assays; details: source organism: Brucella abortus S19
[37] = target: HLA-B*27:20; test: as above; details: source organism: Escherichia coli 536
[38] = target: HLA-B*40:01; test: as above; details: source organism: Escherichia coli 536
[39] = target: HLA-B*40:13; test: as above; details: source organism: Escherichia coli 536
[40] = target: HLA-B*38:01; test: IEDB peptide-MHC binding, purified MHC/direct/fluorescence; filed as Kd, often an IC50 or EC50 that approximates it; ≥ and ≤ were set here for values at or beyond the usual limits of such assays; details: source organism: Mycobacterium tuberculosis str. Haarlem
[41] = target: HLA-B*18:01; test: as above; details: source organism: Mycobacterium tuberculosis
[42] = target: HLA-B*51:01; test: as above; details: source organism: Mycobacterium tuberculosis
[43] = target: HLA-A*69:01; test: IEDB peptide-MHC binding, purified MHC/competitive/fluorescence; filed as Kd, often an IC50 or EC50 that approximates it; ≥ and ≤ were set here for values at or beyond the usual limits of such assays; details: source organism: Mycobacterium tuberculosis variant bovis BCG str. Pasteur 1173P2
[44] = target: HLA-A*31:01; test: as above; details: source organism: Mycobacterium tuberculosis variant bovis BCG str. Pasteur 1173P2
[45] = source organism: Camelpox virus M-96
[46] = source organism: Vaccinia virus WR
[47] = source organism: Human immunodeficiency virus 1
[48] = source organism: Hantaan virus 76-118
[49] = source organism: Brucella abortus
[50] = source organism: Escherichia coli 536
[51] = source organism: Mycobacterium tuberculosis
[52] = source organism: Mycobacterium tuberculosis variant bovis BCG str. Pasteur 1173P2

**Q.** With EYYFRNEVF as the sequence, how does the Kd [1, 45] read?
**A.** Its Kd is at least 20 µM.

**Q.** What about the Kd [2] of the same sequence?
**A.** The Kd was at least 20 µM.

**Q.** What about the Kd [3, 45] of the same sequence?
**A.** Its Kd is 0.195 µM.

**Q.** And the Kd [4]?
**A.** Its Kd is at least 20 µM.

**Q.** And the Kd [5, 45]?
**A.** The Kd was at least 20 µM.

**Q.** And the Kd [6, 45]?
**A.** The Kd was at least 20 µM.

**Q.** What about the Kd ([7]; source organism: Variola virus) of the same sequence?
**A.** Its Kd is at least 20 µM.

**Q.** And the Kd [8, 45]?
**A.** Its Kd is at least 20 µM.

**Q.** What about the Kd [9, 45] of the same sequence?
**A.** Its Kd is at least 20 µM.

**Q.** What about the Kd [10, 45] of the same sequence?
**A.** Its Kd is at least 20 µM.

**Q.** And the Kd [11, 45]?
**A.** Its Kd is at least 20 µM.

**Q.** And the Kd [12, 45]?
**A.** Its Kd is at least 20 µM.

**Q.** And the Kd [13]?
**A.** Its Kd is at least 20 µM.

**Q.** And the Kd [14, 46]?
**A.** Its Kd is 4.38 µM.

**Q.** What about the Kd [15] of the same sequence?
**A.** The Kd was at least 20 µM.

**Q.** And the Kd [16, 46]?
**A.** The Kd was 3.49 µM.

**Q.** And the Kd [17, 46]?
**A.** Its Kd is at least 20 µM.

**Q.** What about the Kd [18, 46] of the same sequence?
**A.** Its Kd is 3.39 µM.

**Q.** And the Kd [19]?
**A.** The Kd was 0.0078 µM.

**Q.** And the Kd [20, 46]?
**A.** Its Kd is 0.153 µM.

**Q.** EELKSLFNTV was tested. Which Kd [21, 47] did it give?
**A.** Its Kd is 1.67 µM.

**Q.** What about the Kd [16, 47] of the same sequence?
**A.** The Kd was 1.08 µM.

**Q.** What about the Kd [22, 47] of the same sequence?
**A.** The Kd was at least 20 µM.

**Q.** And the Kd [18, 47]?
**A.** The Kd was 0.326 µM.

**Q.** What about the Kd [20, 47] of the same sequence?
**A.** The Kd was 0.515 µM.

**Q.** Which Kd ([3]; source organism: Orthohantavirus hantanense) does the source give for RYRTAVCGL here?
**A.** The Kd was 0.0067 µM.

**Q.** And the Kd [23]?
**A.** Its Kd is 0.024 µM.

**Q.** What about the Kd [24] of the same sequence?
**A.** Its Kd is at least 5 µM.

**Q.** What about the Kd [25, 48] of the same sequence?
**A.** Its Kd is at least 5 µM.

**Q.** What about the Kd [26, 48] of the same sequence?
**A.** The Kd was at least 5 µM.

**Q.** What about the Kd [27, 48] of the same sequence?
**A.** Its Kd is 0.0076 µM.

**Q.** What about the Kd [28, 48] of the same sequence?
**A.** The Kd was at least 5 µM.

**Q.** RFRCVGPAP was tested. Which Kd [1, 49] did it give?
**A.** Its Kd is at least 20 µM.

**Q.** And the Kd [29, 49]?
**A.** The Kd was at least 20 µM.

**Q.** What about the Kd [30] of the same sequence?
**A.** The Kd was at least 20 µM.

**Q.** What about the Kd [31, 49] of the same sequence?
**A.** The Kd was at least 20 µM.

**Q.** And the Kd [32, 49]?
**A.** The Kd was at least 20 µM.

**Q.** And the Kd [5, 49]?
**A.** Its Kd is at least 20 µM.

**Q.** And the Kd [33]?
**A.** The Kd was at least 20 µM.

**Q.** And the Kd [6, 49]?
**A.** Its Kd is at least 20 µM.

**Q.** And the Kd ([7]; source organism: Brucella suis 1330)?
**A.** Its Kd is at least 20 µM.

**Q.** And the Kd [8, 49]?
**A.** The Kd was at least 20 µM.

**Q.** What about the Kd [9, 49] of the same sequence?
**A.** The Kd was at least 20 µM.

**Q.** And the Kd [10, 49]?
**A.** Its Kd is at least 20 µM.

**Q.** What about the Kd [11, 49] of the same sequence?
**A.** The Kd was at least 20 µM.

**Q.** And the Kd [34, 49]?
**A.** The Kd was at least 20 µM.

**Q.** What about the Kd [35, 49] of the same sequence?
**A.** The Kd was at least 20 µM.

**Q.** What about the Kd ([16]; source organism: Brucella abortus S19) of the same sequence?
**A.** The Kd was at least 20 µM.

**Q.** What about the Kd [36] of the same sequence?
**A.** Its Kd is at least 20 µM.

**Q.** Which results are given for RQRAVRMVL?
**A.** Kd [14, 50]: 0.354 µM; Kd [37]: 0.0016 µM; Kd [38]: 1.87 µM; Kd [25, 50]: ≥ 5 µM; Kd [26, 50]: 5.18 µM; Kd [17, 50]: ≥ 5 µM; Kd [27, 50]: 0.0307 µM; Kd [39]: 0.0514 µM; Kd [28, 50]: ≥ 5 µM

**Q.** RVEESRARL was tested. Which Kd [29, 51] did it give?
**A.** The Kd was at least 20 µM.

**Q.** What about the Kd [31, 51] of the same sequence?
**A.** Its Kd is at least 20 µM.

**Q.** And the Kd [32, 51]?
**A.** The Kd was at least 20 µM.

**Q.** What about the Kd [6, 51] of the same sequence?
**A.** Its Kd is 2.5 µM.

**Q.** What about the Kd [40] of the same sequence?
**A.** Its Kd is at least 20 µM.

**Q.** And the Kd [8, 51]?
**A.** Its Kd is at least 20 µM.

**Q.** And the Kd [9, 51]?
**A.** Its Kd is at least 20 µM.

**Q.** And the Kd [10, 51]?
**A.** The Kd was at least 20 µM.

**Q.** And the Kd [41]?
**A.** Its Kd is at least 20 µM.

**Q.** And the Kd [42]?
**A.** Its Kd is at least 20 µM.

**Q.** What about the Kd [12, 51] of the same sequence?
**A.** Its Kd is 0.0194 µM.

**Q.** And the Kd [34, 51]?
**A.** Its Kd is at least 20 µM.

**Q.** And the Kd [35, 51]?
**A.** Its Kd is at least 20 µM.

**Q.** And the Kd [21, 52]?
**A.** The Kd was at least 20 µM.

**Q.** And the Kd [43]?
**A.** Its Kd is at least 20 µM.

**Q.** And the Kd [14, 52]?
**A.** The Kd was at least 20 µM.

**Q.** What about the Kd [22, 52] of the same sequence?
**A.** Its Kd is at least 20 µM.

**Q.** And the Kd [44]?
**A.** Its Kd is at least 20 µM.
